From publication PMC5133711 come the findings set out here.

One series concerns JARID2 1-530 (hJARID2). The experiment in a line: BLI. The note with it: BLI: 10 mM HEPES pH 7.4, 150 mM NaCl, 3 mM EDTA, 0.005% Tween-20, 1 mg/ml BSA, 25 C, pull-down buffer not given in the material.
Series [1] addresses H2AK119u1-modified mononucleosomes (Xenopus | not stated). The experiment in a line: BLI; biotinylated mononucleosomes immobilised on streptavidin biosensors; Jarid2 1-530 at 2–25 μM; 25 °C; 10 mM HEPES pH 7.4, 150 mM NaCl, 3 mM EDTA, 0.005% Tween-20, 1 mg/ml BSA; kon and koff from kobs versus concentration; n=3.
Series [2] addresses unmodified mononucleosomes (Xenopus). The series is described as above.
Series [3] has as its target H2AK119u1(I44A) mononucleosomes (Xenopus | not stated) (UniProt P0CG48). Described as above.

With H2AK119u1 mononucleosome (601, 147 bp), in the series on JARID2 1-530 (hJARID2) (kon 576 s-1 (so in the source), H2A K119C crosslinked to His-ubiquitin G67C (so in the source) by 1,3-dichloroacetone), the Kd (commonly a measure of binding affinity in units of concentration) came out at 2.8 µM.

In the case of “H2AK119u1(I44A) mononucleosome (601, 147 bp)”, the Kd in the series on JARID2 1-530 (hJARID2) (H2A K119C crosslinked to His-ubiquitin I44A;G67C (so in the source)) was 5.1 µM.

On to “hJARID2 1–530 (from UniProt Q92833 1-530) (domain or fragment)”, for which the Kd in series [1] worked out at 2.8 µM; in series [2], 5 µM; in series [3], 5.1 µM.

Consider unmodified mononucleosome (601, 147 bp), for which the Kd in the series on JARID2 1-530 (hJARID2) (kon 313 s-1 (so in the source)) was determined as 5 µM.
